Patent US20260258115A1
Where a chain is given by its changes, count along the chain named.

B1: ADI-41234 (antibody, V domains shown)
VH: QVQLVQSGGGVVQPGRSLRLSCAASGFTVSSYAIHWVRQSAGKGLEWVAVEGRFTISRDNSKNTLYLQMNSLRAEDTAVYYCARLSEALVEPAAHTQYKYHYGLDVWGQGTTVTVSS
VL: EIVLTQSPLSLPVTPGEPASISCKSSQSLLDSNGYNYLDWYLQKPGQSPQLLIYLVSNRASGVPDRFSGSGSGTDFTLKISRVEAEDVGIYYCMQALQTPWTFGQGTKVEIK
B2: ADI-41233 (antibody, V domains shown)
VH: EVQLLESGGGLVKPGGSLRLSCAASGFIFRDYYMIWIRQAPGKGLEWVSYISSSSTYTNNADSVKGRFTISRDNAKNSLYLQMNSLRAEDTAVYYCARLFASRSDGAFDIWGQGTTVTVSS
VL: QSVLTQPPSVSGAPGQRVTISCTGSSSNIGAGYDVHWYQQLPETAPKLLIYDNNNRPSGVPDRFSGSKSGTSASLAITGLQAEDEADYYCQSYDSSLSGYVFGTGTTVTVL
B3: ADI-41240 (antibody, V domains shown)
VH: QVQLQQWGAGLLKPSETLSLICDVYGGSFSDYYWSWIRQSPGKGLEWIGEINHSGSTSFHPSLKSRISISIDTSNNQFSLNLSSMTAADTAVYYCARGTLRGYFDYWGQGTLVTVSS
VL: EIVLTQSPSTLSAFVGDRVTITCRASQSISRWLAWYQQKPGKAPNLLISEASSLESGVPSRFSGSGSGTEFTLTISSLQPDDLGTYYCQQYNGYLWTFGQGTKVEIK
B4: ADI-41243 (antibody, V domains shown)
VH: QVQLVQSRAEVKKPGESLKISCKGSLHSFSNNWIGWVRQMPGKGLEWMGIIFPDDSDTRYSPSFQGQVTISADKSISTAYLQWSSLKASDTAIYYCGTVVTLIQGVADWGQGTLVTVSS
VL: QPVLTQPHSVSESPGKTVTISCTRSSGSIDSSYVQWYQQRPGSSPTTVIYEDNLRPSGVPDRFSGSIDSSSNSASLTISGLKTEDEAEYYCQSYDSSNPVVFGGGTKLTVL
B5: ADI-41270 (antibody, V domains shown)
VH: EVQLVESGGGVVQPGQSLRLSCAASGFTFSSFAMHWVRQAPGKGLEWVAVISYDGSNKYYADSVKGRFTISRDNSKNTLSLQVNSLRAEDTAVYYCARVSAEGSMGRFSDFNYWGLGTLVTVSS
VL: QSALTQPASVSGSPGQSITISCTGTSSDVGSYNLVSWYQQHPGKAPKLMIYEVRKRPSGVSNRFSGSKSGNTASLTISGLQAEDEADYYCCSYAGSDTYVFGTGTKLTVL
B6: ADI-41275 (antibody, V domains shown)
VH: EVQLVESGGGLVKPGGSLRLSCAASGFMFSTYSMNWVRQAPGKGLEWVSFITGSSSDKYYAHSVKGRFTISRDNAKRTLYLQLNSLRAEDTAVYYCARFRGLYCDGDCSSRGNTYYNYYGMDVWGQGTTVTVSS
VL: EIVMTQSPLSLSVIPGEPASISCRSSKSLLHSNGYTYLDWYLQKPGQSPQLLIHLGSNRASGVPDRFSGSGSGTDFTLKISRVEAEDVGVFYCMQALQAPPTFGPGTKVEIK
B7: ADI-41250 (antibody, V domains shown)
VH: QVQLQQWGAGLLKPSETLSLTCAVSGESLTGYFWSWIRQPPGKGLEWIGEVSHSGSTNYNPSLKSRVTMSVDTSKTQFSLKLNSVTAADTAVYYCARGYDYWSGTARYFDYWGQGILVTVSS
VL: QPVLTQPASVSGSPGQSITISCTGTSSDVGGYNYVSWYQQHPGKAPKLMIYDVSNRPSGVSSRFSGSKSGNTASLTISGLQAEDEGDYYCSSYRSSTTSRVFGGGTKVTVL
B8: ADI-41265 (antibody, V domains shown)
VH: EVQLVQSGAEVKKPGESLTISCKDSGYSFTSYWIGWVRQVPGKGLEWMGIVYPGDSRYSPSFQGHVTMSADKSINTAYLQWSTLKASDTAMYYCAKVVTYGSAIRWFESWGQGTLVTVSS
VL: QSVLTQPPSVSAAPGQKVSISCSGSSSNIGNNFVSWYQQVPGTAPKLLIIDNNKRPSGIPDRFSGSKSGTSATLGITGLQTGDEADYYCGTWDSRLSAEVFGGGTKLTVL
B9: ADI-41289 (antibody, V domains shown)
VH: EVQLVQSGAEVKKPGESLKISCKGSGYSFSSFWIGWVRQMPGKGLEWMGIIYPGDSDTRYSPSFQGQVTISADQSIRTAYLQWNSLKASDTGLYYCAKGGLGDVEMATIAVWGQGTLVTVSS
VL: QSVLIQPASVSGSPGQSITIPCTGTSSDVGSYNLVSWYQHHPGKAPKLIISEGSKRPLGVSNRFSGSKSGNTASLTISGLQAEDEADYYCSSYVRSRTFNYVFGTGTKLTVL
B10: ADI-41267 (antibody, V domains shown)
VH: QVQLVQSGPGLVKPSGTLSLTCAVSGGSISTTHWWSWVRQPPGKGLEWIGEIYHSGSTNYNPSLKSRVTISVDKSRSQFSLKLTSVTAADTAVYYCARGDPLCSGGICYSGYFDYWGQGTLVTVSS
VL: SYVLTQPPSVSVSPGQTATITCSGDKLGDQYACWYQQKSGQSPVLVIYRDNKRPSGIPERFSGSNSGNTATLTISETQAMDEADYYCQAWGSSSVVFGGGTKVTVL
B11: ADI-41252 (antibody, V domains shown)
VH: EVQLVQSGAEVKKPGESLKISCMGSGYNFPNYWIGWVRQMSGKGLEWMGIIYPDDSDTTYSPSFQGQVIFSADKSISTAYLQWSSLKASDTAMYFCVRLDKTTQIDFWGQGTLVTVSS
VL: EIVLTQSPSSLSASVGDRVTITCQASQDISNYLNWYQQKPGKAPKLLIYDVSNLETGVPSRFSGSGSGTDFTFTISSLQPEDIATYYCQQHDNLPLTFGQGTRLEIK
B12: ADI-41244 (antibody, V domains shown)
VH: QVTLKESGGGLIQPGGSLRLSCAVSGFTVSSKYMSWVRQAPGKGLEWVSVIYGGGSTYYTDSVKGRFTISRDNSNNTLYLQMNSLRAEDTAIYYCAREARSYNYDYVGNDAFDIWGQGTTVTVSS
VL: DIVLTQTPDSLAVSLGERATINCKSSQSVLNNFNNKNYLAWYQQKPGQPPKLLIYWASTRESGVPDRFSGSGSGTDFTLTITSLQAEDVAIYYCQQYYRTPPYTFGQGTKVDIK
B13: ADI-41264 (antibody, V domains shown)
VH: EVQLVESGGGLVKPGGSLRLSCAASGFTFSNTWMSWVRQAPGKGLEWVGHIKSKTDGGTTDYAAPVKGRFTISRDDSKSILNLHLNSLKTEDSAVYYCAALPPISGWYYTPGFWGQGTLVTVSS
VL: SYELTQPPSMSVSPGQTARITCFGDAVPKKYVYWYQQKSGQAPVMVIYDDRRRPSGIPERFSGSSSGARATLTISGAQVEDEADYYCYSTDGSGNPSFGGGTKLTVL
B14: ADI-41247 (antibody, V domains shown)
VH: QVQLVQSGAEVKKPGASLQVSCKASGYTFTDSYFHWVRQAPGQGLEWMGRISPHSGGTNYAQKFQGRVTMTRDTSISTAYLELSRLRSDDTAVYYCATEGPRGPFRFDPWGQGTLVTVSS
VL: NFMLTQPHSVSESPGKTVTISCTRSSGSIASNYVQWYQQRPGSSPTTVIYEDNQRPSGVPDRFSGSIDSSSNSASLTISGLMTEDEADYYCQSYDSSNWVFGGGTKLTVL
B15: ADI-41263 (antibody, V domains shown)
VH: QVQLVQSGAEVKKPGASVKVYCKASGYTFTSHYIHWVRQAPGQGLEWMGRMNPSGGSPMYAQKFQERVTMTRDTSTSTAYMELRSLRSEDTAVYYCAMAKFYSFDYWGQGTLVTVSS
VL: B14 VL with N1Q, F2S, M3V, N32Y, Y33F, Q35H, S44A, T47I, M82K
B16: ADI-41248 (antibody, V domains shown)
VH: QVQLVQSGGGVVQPGRSLRLSCAASGFTFSSYSMHWVRQAPGKGLEWMAVCWYDGSNIYYADSVKGRFTISRDNSKNTVYLQMNSLRAEDTAVYYCARDDRYCSGGTCLSAFDIWGQGTMVTVSS
VL: ETTLTQSPSSLSASVGDRVTITCRASQSISSYLNWYQQKPGRAPKLLIYTTSSLQSGVSSRFSGSGSGTDFTLTINSLQPEDFATYYCQQSYSTPNTFGQGTKVEIK
B17: ADI-41273 (antibody, V domains shown)
VH: EVQLLESGGDLVRPGGSLRLSCTASGFSFSSSEMNWVRQAPGKGLEWVASINSGGDDIYYADSVKGRFTISRDNAKNSLSLQMDSLRAEDTALYYCARSRSGYSSGWSRFFGNWGQGTLVTVSS
VL: QSALTQPRSVSGSPGQSVTISCTGTISDIGAYNYVSWYQQHPGKAPKVMIYDVSKRPSGVPDRFSGSKSGFTASLTISGLQAEDEADYYCCSYAGRWVFGGGTKLTVL
B18: ADI-41235 (antibody, V domains shown)
VH: QVQLQQWGAGLLKPSETLSLTCGVYGESFSGHYWSWIRQPPGKGLEWMGEIHHSGTTNYNPSLKSRVTISVDTSKNQFSLKLNSVTAADTAVYYCARNPAEDILTGYSPPFHYYYMDVWGKGTTVTVSS
VL: QSVLTQPPSVSGAPGQRVTISCTGSSSNIGAGYDVHWYQQIPGTAPKLLIHSNNNRPSGVPDRFSGSKSGTSASLAITGLQAEDEADYYCQSYDSSLSVVFGGGTKLTVL
B19: ADI-41236 (antibody, V domains shown)
VH: QVQLVQSGGGLVKPGGSLRLSCTASGFTFSDYYMDWIRQAPGKGLEWVSSISSSSTYTKYADSVKGRFTISRDNAKNSLFLQMNSLRAEDTAVYYCVRNLGPYCSSTSCFVFDYWGQGTLVTVSS
VL: QSVLTQPPSVSGAPGQRVSISCTGSSSNIGAGYEVHWYKQVPGTAPRLLMYDNTNRPSGVPDRVSGSKSGTSASLAITGLQAEDEADYYCQSYDNSLNKSVFGGGTKVTVL
B20: ADI-41241 (antibody, V domains shown)
VH: QVQLVQSGAEVKKPGASVQVSCKASGYTFTGDYMHWVRQAPGQGLEWMGRINPNSGGTNYAQKFQGRVTMTRDTSISTAYMELSRLRSDDTAVYYCARAAAEYSSSSPTSYYYMDVWGKGTTVTVSS
VL: EIQMTQSPSSLSASVGDRVTITCRASQNIYSFLNWYQQKPGKAPKLLIYAASSLQSGVPSRFSGSGSATDFTLTISSLQPEDFATYYCQQSYSPPQITFGQGTKVDIK

Molecular target: Respiratory Syncytial Virus fusion glycoprotein (RSV F) on RSV-A2 virus (Respiratory Syncytial Virus subtype A (RSV-A2))
Test: cell-based or functional assay

Point of comparison: B1, Neutralization IC50 (RSV subtype A) 0.1 µg/mL. Against it:
- B2 — within 1.5-fold, 0.15 µg/mL

Molecular target: RSV postfusion F (postF, F deltaFP) (Respiratory syncytial virus)
Test: BLI, IgG on sensor, 100 nM antigen

Point of comparison: B11, Kd 1 nM. Against it:
- B3 — within 1.5-fold, 1.2 nM
- B4 — 2.4-fold lower, 0.418 nM
- B5 — 1.6-fold lower, 0.617 nM
- B6 — within 1.5-fold, 1.33 nM
- B7 — 2-fold lower, 0.504 nM
- B8 — 3.1-fold higher, 3.08 nM
- B9 — within 1.5-fold, 0.881 nM
- B10 — 11-fold higher, 10.9 nM
- B12 — within 1.5-fold, 0.843 nM
- B13 — 2.1-fold lower, 0.484 nM
- B14 — within 1.5-fold, 1.02 nM
- B15 — 2.9-fold lower, 0.345 nM
- B16 — 2.6-fold lower, 0.392 nM
- B17 — within 1.5-fold, 1.17 nM
- B18 — 3.2-fold higher, 3.24 nM
- B19 — 61-fold higher, 61.3 nM
- B20 — within 1.5-fold, 0.927 nM

Molecular target: RSV prefusion F (preF, DS-Cav1) (Respiratory syncytial virus)
Test: BLI, IgG on sensor, 100 nM antigen

Point of comparison: B11, Kd 1.37 nM. Against it:
- B3 — 1.6-fold higher, 2.15 nM
- B4 — 2.6-fold higher, 3.55 nM
- B5 — 3.6-fold higher, 4.92 nM
- B6 — 4.2-fold higher, 5.74 nM
- B7 — 1.9-fold lower, 0.731 nM
- B8 — 11-fold higher, 15 nM
- B10 — 7.8-fold higher, 10.7 nM
- B14 — 2-fold higher, 2.76 nM
- B15 — 2.1-fold higher, 2.9 nM
- B16 — 2.4-fold higher, 3.35 nM
- B17 — 2.2-fold higher, 3.06 nM
- B18 — 3.4-fold higher, 4.72 nM
- B20 — 2.8-fold higher, 3.84 nM

Molecular target: RSV prefusion F (preF), DS-Cav1 (Respiratory Syncytial Virus)
Test: BLI, IgG on anti-human IgG sensor, 100 nM antigen

Point of comparison: B1, Kd 1.46 nM. Against it:
- B2 — within 1.5-fold, 1.06 nM
